Source: article PMC8458377 (Nature Communications, 2021)

Columns and labels:
[1] = target: the molecule itself; assay: crystal structure; sitting drop vapour diffusion at 18 °C; spacegroup P6_(5)22, three copies in the asymmetric unit arranged as two dimer interfaces
[2] = target: the molecule itself; assay: AUC; multispeed sedimentation equilibrium (18,000, 21,000, 26,000 rpm), Acetate Buffer, global fit to a monomer-dimer-tetramer model; constant of: tetramer to dimers (KD2-4)
[3] = target: the molecule itself; assay: AUC; multispeed sedimentation equilibrium (18,000, 21,000, 26,000 rpm), Acetate Buffer, global fit to a monomer-dimer-tetramer model; constant of: dimer to monomers (KD1-2)
[4] = target: the molecule itself; assay: SEC-MALLS; 100-400 µM loaded in 100 µL on Superdex INCREASE 200 10/300 GL in Acetate Buffer (50 mM sodium acetate, 300 mM NaCl, 1 mM TCEP pH 5.0), 1.0 mL/min
[5] = target: the molecule itself; assay: AUC; sedimentation velocity, 50,000 rpm, 293 K, Acetate Buffer, interference data, 30-181 µM, C(S) analysis

Row | Protein | binding result [1] | Kd [2] [µM] | Kd [3] [µM] | stoichiometry N [4] | stoichiometry N [5]
1 | p18m_AUG1, Ty1 Gag residues M249-N355 (crystallised) (domain or fragment, S. cerevisiae, UniProt P08405 249-355, looked up, S. cerevisiae Ty1A (Ty1 Gag), Uniprot P08405, residues M249-N355, starting at the AUG1 methionine; Residues D262 to Q351 are visible in the map; source: E. coli BL21 (DE3), purified (Ni-NTA, carboxypeptidase A digestion, gel filtration)) MKILSKSIEKMQSDTQEANDIVTLANLQYNGSTPADAFETKVTNIIDRLNNNGIHINNKVACQLIMRGLSGEYKFLRYTRHRHLNMTVAELFLDIHAIYEEQQGSRN | binds | – | – | – | –
2 | p18m-I269F (p18m_AUG2-I269F) (domain or fragment, S. cerevisiae, UniProt P08405 259-355, looked up, S. cerevisiae Ty1A (Ty1 Gag), Uniprot P08405, residues M259-N355 with I269F; source: E. coli BL21 (DE3), purified) MQSDTQEANDFVTLANLQYNGSTPADAFETKVTNIIDRLNNNGIHINNKVACQLIMRGLSGEYKFLRYTRHRHLNMTVAELFLDIHAIYEEQQGSRN | – | 45.3 | 0.74 | 2 | –
3 | p18m-A273V (p18m_AUG2-A273V), solution studies (domain or fragment, S. cerevisiae, UniProt P08405 259-355, looked up, S. cerevisiae Ty1A (Ty1 Gag), Uniprot P08405, residues M259-N355 with A273V; Tag removal is described only for the crystallographic sample; source: E. coli BL21 (DE3), purified) MQSDTQEANDIVTLVNLQYNGSTPADAFETKVTNIIDRLNNNGIHINNKVACQLIMRGLSGEYKFLRYTRHRHLNMTVAELFLDIHAIYEEQQGSRN | – | 51.8 | 0.34 | – | 2
4 | p18m_AUG2-A273C (domain or fragment, S. cerevisiae, UniProt P08405 259-355, looked up, S. cerevisiae Ty1A (Ty1 Gag), Uniprot P08405, residues M259-N355 with A273C; source: bacterially expressed (E. coli), purified) MQSDTQEANDIVTLCNLQYNGSTPADAFETKVTNIIDRLNNNGIHINNKVACQLIMRGLSGEYKFLRYTRHRHLNMTVAELFLDIHAIYEEQQGSRN | – | – | – | 2 | –
5 | Seleno-methionine p18m_AUG2 (crystallised) (domain or fragment, S. cerevisiae, UniProt P08405 259-355, looked up, seleno-methionine substituted, S. cerevisiae Ty1A (Ty1 Gag), Uniprot P08405, residues M259-N355; also called Se-Met p18m_(AUG2); source: E. coli B834 (DE3) in seleno-methionine medium, purified (Ni-NTA, gel filtration in Acetate Buffer)) MQSDTQEANDIVTLANLQYNGSTPADAFETKVTNIIDRLNNNGIHINNKVACQLIMRGLSGEYKFLRYTRHRHLNMTVAELFLDIHAIYEEQQGSRN | binds | – | – | – | –
6 | p18m (p18m_AUG2), Ty1 Gag residues M259-N355 (domain or fragment, S. cerevisiae, UniProt P08405 259-355, looked up, S. cerevisiae Ty1A (Ty1 Gag), Uniprot P08405, residues M259-N355, starting at the AUG2 methionine; also called WT p18m; source: E. coli BL21 (DE3), purified (Ni-NTA, gel filtration in Acetate Buffer)) MQSDTQEANDIVTLANLQYNGSTPADAFETKVTNIIDRLNNNGIHINNKVACQLIMRGLSGEYKFLRYTRHRHLNMTVAELFLDIHAIYEEQQGSRN | – | 43.2 | 0.73 | 2 | –
7 | p18m-F323S (domain or fragment, S. cerevisiae, UniProt P08405 259-355, looked up, S. cerevisiae Ty1A (Ty1 Gag), Uniprot P08405, with F323S; also called Dimer-2 interface-mutant p18m-F323S; source: E. coli BL21 (DE3), purified) MQSDTQEANDIVTLANLQYNGSTPADAFETKVTNIIDRLNNNGIHINNKVACQLIMRGLSGEYKSLRYTRHRHLNMTVAELFLDIHAIYEEQQGSRN | – | – | – | 2 | –
